Assay results from paper PMC12339742.

Test: turbidity assay; turbidity at 600 nm against protein concentration; 20 mM Tris-HCl, 150 mM NaCl pH 8.0, 20% (w/v) PEG2k; 96-well plate, quadruplicate; self-assembly into condensates
Conditions: other: turbidity assay

Row | Substance | inflection of turbidity against protein concentration
1 | PduP encapsulation peptide with its native linker fused to the N-terminus of mNeonGreen | 33.1 µM ± 0.4 µM
2 | Three serial repeats of the PduP EP and its native linker fused to the N-terminus of mNeonGreen | 19.7 µM
3 | Two serial repeats of the PduP EP and its native linker fused to the N-terminus of mNeonGreen | 15.5 µM
